experiment: soluble on expression in E. coli; label from the status in PepcDB or PDB records

Sequence	soluble on expression in E. coli
MSLYELQKVIKMDTETEDVPMFTVQNLPREDIYKTIGEMAIIVPMKNEKLHLVDGVLKAIPHKSPIIIVSNSKRKGPNRFKQEVDLVKHFCNLTHSKVIMIHQRDPGLAEAFRETGYEDILDEKGLVRSGKGEGMLIGIMLAKAIGAKYVGFVDADNYIPGAVNEYVKDYAAGFLMSESEYAMVRLHWRHKPKVSRGTLYFKKWGRVSEITNRYLNQLISEKTAFETTIMVTGNAGEHAMTMKLAEILPFSTGYSIEPYEIVYLLERFGSWENVEEFQDVFDQGIEIFQIETLNPHFHEDKGQEHVKEMVLLSLTTIYHSKLASERLKRQILEDLRMHGIIKEDEEPPKPRVMRPIKDIDIKKWMKTLESNQETLLRFDLEGHHHHHH	not soluble
MSLLTEVETYVLSIIPSGPLKAEIAQKLEDVFAGKNTDLEALMEWLKTRPILSPLTKGILGFVFTLTVPSERGLQRRRFVQNALNGNGDPNNMDRAVKLYKKLKREITFHGAKEVALSYSTGALASCMGLIYNRMGTVTTEVAFGLVCATCEQIADSQHRSHRQMATITNPLIRHENRMVLASTTAKAMEQMAGSSEQAAEAMEVANQARQMVQAMRTIGTHPNSSAGLRDNLLENLQAYQKRMGVQMQRFK	soluble
MAKAPDVVDLLALAVERGASDLVITVGLPPMLKIDGEFHPTEYEPLTPQETRRLMYALMDEKQQRIFEEEKELDFSFSLPGKGRYRVNVFLQRGSVGGVLRVVPSAVKSFEELGLPKNIAEIAMSPRGLVLVTGPTGSGKSTTLASMIDYINERKACHIVTIEDPIEFFHKHKRAIVNQREIGSDTKSFHKALRSVLRQAPDVILVGEMRDYETIAAAITAAETGHLVMGTLHTNSAPETIDRIVDVFPENQQEQVRVQLSNNLVAVLTQQLLPKAFGGGRVLAYELMIATPAVRALIREGKTHQLRSVIQTGGQYGMITMDACLADLYRRKLITYEMGLARAVDPKEFMRLAGAPEGARR	soluble
MDSNEIIKRVRERVYREVKKKYTRDDLDTRIQDVLYYRSETYMKLVSFANGKRIKKLADPRKFEKFMDTKGVKIVAEVLDGLNNQPKMQAMEYEQKVLTKVRQWYQKKNHPELVDLEEEAFEQLVEKNIIYKKMKKRLYEEQDNQGFVYSDNFDMQLIRDSCDIEEALYLDITLGDY	not soluble
MGSDKIHHHHHHMKTIKGPGIFLAQFIGTQAPFNTLAGIAQWAAGLGYKALQIPCNHPAIFDVERAAASQTYCDEVSGILAEHGLVISELSTHLEGQLVAVHPAYDAAFDAFAPAALHGDPQARQRWAVEKVRQAAVASGRLGLQAHATFSGALAWPFFYPWPPHNQPLLDEAFAELARRWRPLLDLFDEQGVDVCYEIHPGEDLHDGVTFERFLALVDNHPRCNMLYDPSHLHLQQMDYLAYIDIYHARIKAFHVKDAEFRRNGRNGVYGGYQPWQQRAGRFRSPGDGQIDFKGVFSKLTEYDFAGWAVLEWECCLKDSETGAREGSEFIRRHIIPVAGRAFDDFAAGGRE	not soluble
VKFIADPSGVDVLEEVEVFALGPTEVIVVGRLEFIYHEASDEYLEKFEGKLKKGVWYGTNIAVIFTLYRPAGSMEVDKIILDNTFEEIL	not soluble
MGSDKIHHHHHHMKEVTLGRGMIPGVVPSLAFRRDVSSIVAKRNPSPSIRASFPVRDLFHALARSAGDSDTHHAARKFLDERLVEVAHLESDLPHDIAALPQWLEQRCARVRSDYRAYLADRHAGQQARYFSCRAHALHFLQSMAPSRMVEGAWLYGFLKHWREARFAPMCRVYLRNLGDGDPGCNQVSLYQKLLDRNGCADWHGLDDQYYVQGAIRLALGHHVDHYLPEIIGFNLGYDQVSLPMLIAAYELSEQGVLPHYFTLHVTEDDAGASSAMKLLGSLLDTADSAKAREMLLHRVNNGYKLHRLGLDIPGIVASFDLQKAFLAVMQPCAAYLERVYRIDCMERGIRGRWTDSLPLPLLLQQLCNEGWMHPDEKGKTRLWQVLERGNLLPAPGYPQQVVVDWSARSDEYGKRLPHTDVADLVPVSPPPARRPEEAEEHWADFNESGSQADLMEHMIRLLSPLAHHTQEGLKAARIYKSILEKGSELYSQHSALFLWHGRV	not soluble
MIMQEKIKEIASRVRELRELSEISVEKMAEYLQVSKEIYEKYENGTEDIPASILFEIAHRLQVDMATLLTGEEPRMNVFTVTRSGKGVSVERREQYRYQNLAEKFIHKKAEFFIVTVDPKPQGTKPDTNSHPGQEFNYVLEGSLKVYIHHNEIILNEGDSIYFDSNYQHAMEAMNGKTAKFLAVIM	not soluble
MAPAKKVETRSTDGETRRHIMLIMLKEGPVTATQLGQQLNLSATGIRRHLDILLDEGFAEISSVRRVACEKSRGRPAKAFKLTASGRSQFGHEYDSLAAEALATLKESGGEAAVRAFARKRVEKILADVHVPDNIDDNQLAEVATQLVEAFSNNGYAATINNAANGVQICQHHCPISGVAADFPELCEAEHEMIAKILGHHVQPLASIADGHDICTTNIPITPILTPRKNTPTERSGS	not soluble
MNKLLSYYQKELAFLRKQGIEFAKKYPKVARRLGYNQGGSEDPHVQRLTESFAFLSSKIHQRLDEDLPELMEALLRNLAPQFLYNYPSSCIVSFEPDRKSSGITSTYRVPSGTSLYSRYKYKTICQFRTVYPLTIVPATVNKARIHYDNSSSLWKIELNLDVFDGANFSLDFVRFYLNGPATVTGIIYTLLCDEVDNIVLQRNNDVLYDISANISGAGFYESEVTLPQKGNVSYIHNLILDYFSFPERFNFIDIEFDSGIELCSGDSVRIEITLKSSAEKYEPDRIERNVSERLFKVNCSPVVNLFEKKTEPLRLSDGQDEYQVNTDLYSRNEVLIWDINKVTLHRYENDIVKQFPLKNLFGLEHSVIKQSCNIFWHSSCYRSSSERGNFEESVYIRLSDDGGAQSCIMTGDVLSIDAICTNGNIPSSINNGDPDGDFDCDIDIAQLRITALNRPSRMLPAMALKGMNWRIVSQLSLNFVLLSGTDGAMKLREMLSIYNYNNNHSISIFIEWIKELQITPVSSRLPGIYPPVTARGIDITVTLSKDADMHPECFMFCSFLDHFLGLHAPVNSFTRMITVIEHEEHTRRVWPIRAGKLTWL	not soluble
MSSIPQNIKGNNQPDIQKSFVAVHNQPGLYVGQQARFGGKVINVINGKTDTLLEISVLPLDSYAKPDIEANYQGRLLARQSGFLDPVNYRNHFVTILGTIQGEQPGFINKVPYNFLEVNMQGIQVWHLREVVNTTYNLWDYGYGAFWPEPGWGAPYYTNAVSQVTPELVKLEHHHHHH	soluble
MSLMTLYPVVVQERTTGEVLMLAYANEEALELTKKTGYAHFFSRERQKIWKKGETSGNTMRVVEIRRDCDDDAYLYIVDFPEDKVACHTGNRSCFFKVEHRFEETGSPTFWLELYRLVRKRKEEMPEGSYTVKLFKEGKGKIAKKFGEEAVEVITGYLQNDRENLVWEIADMMYHLTVLMADAGVTVQDVMRELEKRRKEGHHHHHH	soluble
MGSDKIHHHHHHMATTNAASTVRELIREHYSALTQAERKFANALLDNYPAAGLASITIVASNVGVSSPTVARMVKKLGFKGYPEFHKALLSELEAKGVGPTKRRDNWSSEAPQEHLLNRFSQAVTNNLQQTFAHIDTERFDQATRQLADTEKRLYIVGGRITQALADYAFTHFQAVRPGVTHMTSSSGTWPHYVLDMEPGDTLLIFDVRRYETNLLRLTEIVKKRGAQIVLFTDQWGSPISTLADLTFHCRVEIPSGWDSNVATMMLLETMIASVQEQRWPDARDRYERLDELFDKTHFFRKFT	not soluble
SLFQNFINKFVGEKQMDLIKDCNTFLAFVTDKEQTKKKLYKNNMCKNRFCPMCAWRRARKDALGLSLMMQYIKQEEKKEFIFLTLTTPNVKAEELEDEIKKYNLSFGKLVKRKNVKAMMKGYVRKLEITYNKQRDDFNPHFHVLIAVNKSYFKDSKVYISQKEWLEMWRDVTGMPEITQVHVQKIKQNNNKELYEMAKYSGKDSDYLINQKIFDAYYKSLKGKQILVYSGLFKEARKKLKNGELDYLKEIDPTEYLYQIYYIWNQKEYLASELHELTEEEKRKINHQTINEIEEEK	soluble
MDRSAEFRKWKAQCLSKADLSRKGSVDEDVVELVQFLNMRDQFFTTSSCAGRILLLDRGINGFEVQKQNCCWLLVTHKLCVKDDVIVALKKANGDATLKFEPFVLHVQCRQLQDAQILHSMAIDSGFRNSGITVGKRGKTMLVVRSTHGLEVPLSHKGKLMVTEEYIDFLLNVANQKMEENKKRIERFYNCLQHALERETMTNLHPKIKEKNNSSYIHKKKRNPEKTRAQCITKESDEELENDDDDDLGINVTIFPEDY	not soluble
MDRSERLIQLISEEGIDAFLIMNIENSARASSVYFSGFTGSFSIILISENTRLLITDSRYTVQAKQETDFEVREVKGGDFIDVLKKTVNDLKIKTIALEEERVSLSLFRRISSAFGDRKFIGIDDEVKQMRMVKDEGEIEKIKQAIEISERAFLETVQQIRAGMTEKEIAALLEYTMRKEGAEGVAFDTIVASGCRSALPHGKASDKVVERGDVIVIDFGATYENYCADITRVVSIGEPSDEVKEVHSIVLEAQERALKIAKAGVTGKLLDSVAREFIREKGYGEFFGHSLGHGIGLEVHEGPAISFRNDSPLPENVVFTVEPGIYLEGKFGIRIEEDVVLKEQGCEILTTLPRSIFVV	soluble
AHHHHHHGSYVIIMGAGRIGTLVAKMLENSGHDVAIIEMNKDRARAVSDIVSGLVIEGDATDQNILESANVRNADAFVALTGKDDANILACILAKHLNPRIMTILRITDPRKKKIFEEVKDLKKYFDVVVSPEDIAANYIFRVVITPGFDRVLLPREGAEIIQFHIDENSKVAGKAVKDLNLPRDSLIIAIYDEKGNLIIPSGETILPKRGTVVVFAKDSALKEIKKIMEEKVEESEE	soluble
MGSDKIHHHHHHMKICLVSSMHPPHDKRVFDKEAVTLSSNGYKVLHLCPGTASDSGVFNDVEIVPYCRPSGIKGRLLQIFQLYRMANKINADVYHCNEVDSWFVGVLLKILRKKLCVFDVHEHYPSTFAESRFPKWIQPAVSSLVKLIFRLFLPFTDRLVLAKKSVSDDFPNSDSKKVLVRNFTPLSGINFTGVREVVPKGSDVTLIHLGLFGKIRGWPQTLEALKTMKQKNVRLVVIGDFNDGSRADFDSVVSAYGLNDRVVVYDWMPFEDAFKHLMQAHIGLVVFQPGILNHVYAMPHKMFDYMAAGMAVICPEFAMEVAPFVKEAKCGLLVDTANPADLAKKLDELVSSPDLIHEMGVRAQKAVQQHYNWEAEAKHLIQMYKELEELQ	not soluble
VDHLHIVGDVYDRGPYPDKIMDTLMNYHSLDFQWGNHDILWMGAASGSRVCAANVIRISARYLNLDILEDSYGISLRPLALFADEIYKNDPCTYFQPKNEDNLNYSKAEITQIARMHKAISIIQFKLEGEIINRRKEFDMNHRLLLQMIDYKKGTIHLKGKDYQLLDTHFPTIDPNDPYKLTKEEKELIEKITASFKNCRRLQKHVQFLYSKGSMFLTYNGNLLYHGCIPLYEDGTFMEMKLRGENFSGRELLEQFEILTREAYVRKPGTKEKKYACDIVWYLWTGAVSSLFGKSEMTTFERYFIAEKETHKEEKNPYYKLRNEETICKQILEEFGLDGECGHIINGHTPVKEGKGESPIKANTKMLVIDGGFAKAYHKETTLAGYTLLYNSY	not soluble
MGSDKIHHHHHHMFRHFRSRFGTPAWAGVNEDDFLLVRSWFGHGRHHGRDRDKHFGNEMFGRGWGDEHRTRRGDIKFILLELLSEHPSHGYDLIKEMETRYGGFRRLSPGSVYPTLQLLEEGGYLKSAQEGGKRIYTITDEGRKLLAERAQQETSDTPWDTVKSFVTGKPQEFIELRNAATELAAVVVQVARSGNVERINRVRELLEQVKREIYTILAEK	not soluble
MRCPRCHHNNSRVIDSRQADDGRAIRRRRECENCSYRFTTFERIEAAPLLVIKKNGDREEFNRDKILRGLIRSAEKRPVAMEQMVQIVDNVENRVRSLGENEVSTTLIGEYVMEDLVNLDEIAYIRFASVYRQFKDMSVFLKELQDIVDKAKSSSPDSEN	not soluble

Reference: the DeepSol protein solubility set
